The experiment has as its target T1, mouse OAT-3 (oat3, slc22a8) (mouse, UniProt O88909 1-537).
T1 construct: whole, on cells; Expressed in HEK293T cells; coIP from lysates; not shown: myc-DDK tag of the pCMV6-Entry myc-DDK vector
T1 sequence (looked up): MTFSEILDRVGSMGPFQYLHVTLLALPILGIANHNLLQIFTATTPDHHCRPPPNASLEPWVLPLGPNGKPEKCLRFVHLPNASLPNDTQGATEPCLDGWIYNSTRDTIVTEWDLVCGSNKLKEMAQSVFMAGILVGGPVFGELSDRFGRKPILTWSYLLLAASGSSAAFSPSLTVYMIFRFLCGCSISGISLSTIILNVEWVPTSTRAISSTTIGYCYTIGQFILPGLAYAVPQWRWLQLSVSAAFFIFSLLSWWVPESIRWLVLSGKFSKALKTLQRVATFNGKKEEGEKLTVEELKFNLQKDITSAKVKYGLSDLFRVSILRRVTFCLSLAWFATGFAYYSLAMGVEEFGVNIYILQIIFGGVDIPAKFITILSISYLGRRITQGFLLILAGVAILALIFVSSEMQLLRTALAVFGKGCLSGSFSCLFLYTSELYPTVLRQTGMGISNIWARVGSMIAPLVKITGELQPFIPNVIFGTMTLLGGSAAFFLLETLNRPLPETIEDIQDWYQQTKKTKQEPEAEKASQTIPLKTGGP
Briefly: coIP from HEK293T cells co-transfected with OAT-3 and IRBIT. The source says:
To determine whether IRBIT regulates succinate efflux via interaction with OATs, the interaction of OAT-1 and/or OAT-3 with IRBIT was monitored by coIP. […] Succinate uptake was elevated by expression of OAT-1 alone, that was abolished by the OAT inhibitor probenecid (FIG. 6B-C). Neither IRBIT, SUCNR1 stimulation, nor inhibition of PLC by U73122 affected the OAT-mediated succinate uptake. These findings indicate that OAT-1 activity is IRBIT-independent.

Here are results for 1 molecule from US20200262889A1 (B G NEGEV TECHNOLOGIES AND APPLICATIONS LTD AT BEN GURION …, published 2020).

B1: IRBIT (IP3 receptor-binding protein released with IP3; S-adenosylhomocysteine hydrolase-like protein) (other)
chain: SMPDAMPLPGVGEELKQAKEIEDAEKYSFMATVTKAPKKQIQFADDMQEFTKFPTKTGRRSLSRSISQSSTDSYSSAASYTDSSDDEVSPREKQQTNSKGSSNFCVKNIKQAEFGRREIEIAEQDMSALISLRKRAQGEKPLAGAKIVGCTHITAQTAVLIETLCALGAQCRWSACNIYSTQNEVAAALAEAGVAVFAWKGESEDDFWWCIDRCVNMDGWQANMILDDGGDLTHWVYKKYPNVFKKIRGIVEESVTGVHRLYQLSKAGKLCVPAMNVNDSVTKQKFDNLYCCRESILDGLKRTTDVMFGGKQVVVCGYGEVGKGCCAALKALGAIVYITEIDPICALQACMDGFRVVKLNEVIRQVDVVITCTGNKNVVTREHLDRMKNSCIVCNMGHSNTEIDVTSLRTPELTWERVRSQVDHVIWPDGKRVVLLAEGRLLNLSCSTVPTFVLSITATTQALALIELYNAPEGRYKQDVYLLPKKMDEYVASLHLPSFDAHLTELTDDQAKYLGLNKNGPFKPNYYRY
notes: The methods say only 'IRBIT in pcDNA3.1(+)'
With B1, the binding result is recorded as “no binding”.
